Experimental data from patent US20090123447A1, “COMPOSITIONS AND METHODS TO INHIBIT RNA VIRAL REPRODUCTION” (priority 2007, published 2009).

Assays:
[1] = tested on: subgenomic HCV replicon of genotype 1b; experiment: microbe, parasite or virus in culture; assay type: cell-based, hepatitis C virus
Protocol: Huh7 human hepatoma cells were cultured in Dulbecco's modified Eagle medium (DMEM; Invitrogen, Carlsbad, Calif., USA) supplemented with 10% fetal bovine serum (FBS; Invitrogen), 100 units/ml of penicillin, and 100 μg/ml of streptomycin in a 5% CO2 incubator. SgPC2 cells are G418-selected, pooled Huh7 cell clones that support the continuous replication of a subgenomic HCV replicon of genotype 1b and [29] (GenBank Accession No. AJ242652) that carries a S11791 adaptive mutation within the NS5A region. SgPC2 cells were maintained in the above medium supplemented with 0.5 mg/ml G418 (Invitrogen). G418 was removed at least 1 day before cell treatments.

[2] = tested on: intracellular calcium concentration ([Ca^2+]i); experiment: [Ca^2+]i measurement with Indo-1 AM in SgPC2 cells; assay type: cell-based, human; details: 24 h, 2 mU/ml GO
Protocol: Briefly, on the day of the experiment, cells were washed in Krebs-Ringer phosphate buffer (KRPH; pH 7.4, containing 1.0 mM MgSO4, 1.3 mM CaCl2, 10 mM Hepes, 5 mM glucose, 125 mM NaCl, 5 mM KCl, and 10 mM sodium phosphate) and subsequently loaded with 10-20 μM Indo-1 AM (70 μl/coverslip; Molecular Probes, Inc., Eugene, Oreg., USA) containing 10 μM probenecid (Molecular Probes) for 30 min at 37° C. The attached cells were washed and bathed in KRPH/probenecid at 4° C. or room temperature until further analysis. Then, coverslips were individually submerged into KRPH and preequilibrated inside the […] fluorimeter (Hitachi) in darkness for 3 min, and [Ca^2+]i was monitored continuously at 37° C., with excitation at […] and emission at 400 and 450 nm. H2O2 and other agents were injected at different time points, as indicated under Results. [Ca^2+]i was calculated as described. Rmax was determined by adding 8-16 μM digitonin and Rmin with 10 mM ethylene glycol-bis(β-aminoethyl)-N,N,N'-tetraacetic acid (EGTA). […] The baseline, which represented unstimulated cells scanned over time, was plotted along with other measurements or subtracted from the other plots. Cells were serum-depleted, 1 day before the experiment, by incubating them overnight in DMEM plus 0.5% FBS. […] Then, CaCl2 was added before determining the Rmax for each run.

JFH1 HCV (genotype 2a) = assay type: cell-based, hepatitis C virus; details: JFH1-transfected cells, 0.25 mU/mL GO plus glucose
Protocol: (§1) For viral RNA transfection, JFH1, JFH1/GND, and pSGR-JFH1-Luc were linearized with XbaI and used to synthesize the corresponding positive-sense stranded HCV RNA, as previously described (68). Then, 5×10^6 Huh7 cells were rinsed with Opti-Mem (Invitrogen), mixed briefly with 10-20 μg of the in vitro transcribed RNA in 0.4 ml of Opti-Mem, and then electroporated at 260 volts and 950 μF. […] Medium was changed daily. For infection with HCV, medium collected from JFH1 RNA-transfected cells were cleared of cell debris, as described, and added to naïve Huh7 cells. Typically, 1:2 or 3:2 ratio of the virus-containing medium and fresh cell culture medium were used.
JFH1/GND was used as the negative control. […]
Intracellular JFH1 HCV RNA content was also analyzed by qRT-PCR (Taqman), using ABI7300 real time PCR system and one step RT-PCR kit from Applied Biosystems. […] All samples were analyzed in duplicates or triplicates. […] The level of 18S rRNA was also analyzed, using manufacturer-optimized protocol, as the control.
To analyze the amount of the extracellular HCV RNA, medium from the cells were cleared by low-speed centrifugation and then, treated with RNaseA at room temperature. Then, the RNA samples were extracted, using Trizol LS Reagent (Invitrogen), and analyzed for HCV RNA content by qRT-PCR.

[3] = tested on: SgJFH1-Luc RNA (subgenomic JFH1 replicon); experiment: SgJFH1-Luc RNA replication in Huh7 cells, luciferase assay; assay type: cell-based, hepatitis C virus; details: Huh7 cells transfected with SgJFH1-Luc RNA
Protocol: as §1
SgJFH1-Luc RNA replication was also monitored by firefly luciferase reporter assay, using a kit from Promega.
To investigate whether the HCV RNA replication is modulated by ROS, Huh7 cells were transfected with the SgJFH1-Luc RNA and treated with GO plus glucose.
After 24 and 48 hours, respectively, the cells were collected in PBS, centrifuged, lysed in the reporter lysis buffer (Promega), and analyzed for luciferase activity.

JFH1-transfected cells = experiment: ATP concentration as cytotoxicity measure in JFH1-transfected cells; details: JFH1-transfected cells, concentrations used
Protocol: Determination of ATP concentrations—ATP level was measured, using Somatic Cell ATP Assay kit from Sigma-Aldrich, as previously described (68). Protein level was determined with bicinchoninic acid kit (Pierce Biotechnology, Inc., Rockford, Ill.).
ATP concentration was measured to determine if the treatments were cytotoxic to the cells.

HCV NS5A = details: after 24 h of GO exposure
Protocol: Cells were sonicated in 2× Laemmli buffer and total protein samples were analyzed for HCV NS5A level by Western blot, using monoclonal anti-NS5A antibodies (Biodesign) and the corresponding horseradish peroxidase-conjugated secondary antibodies. Chemiluminescent images were processed with an ECL kit from Amersham Pharmacia and analyzed with the IS2000 gel imaging system (Kodak).

B1: catalase: exogenous catalase (Sigma-Aldrich) added to confirm the role of H2O2 (protein, UniProt P00432 2-527, looked up)
Catalase: ADNRDPASDQMKHWKEQRAAQKPDVLTTGGGNPVGDKLNSLTVGPRGPLLVQDVVFTDEMAHFDRERIPERVVHAKGAGAFGYFEVTHDITRYSKAKVFEHIGKRTPIAVRFSTVAGESGSADTVRDPRGFAVKFYTEDGNWDLVGNNTPIFFIRDALLFPSFIHSQKRNPQTHLKDPDMVWDFWSLRPESLHQVSFLFSDRGIPDGHRHMNGYGSHTFKLVNANGEAVYCKFHYKTDQGIKNLSVEDAARLAHEDPDYGLRDLFNAIATGNYPSWTLYIQVMTFSEAEIFPFNPFDLTKVWPHGDYPLIPVGKLVLNRNPVNYFAEVEQLAFDPSNMPPGIEPSPDKMLQGRLFAYPDTHRHRLGPNYLQIPVNCPYRARVANYQRDGPMCMMDNQGGAPNYYPNSFSAPEHQPSALEHRTHFSGDVQRFNSANDDNVTQVRTFYLKVLNEEQRKRLCENIAGHLKDAQLFIQKKAVKNFSDVHPEYGSRIQALLDKYNEEKPKNAVHTYVQHGSHLSAREKANL
effect on the suppression of HCV RNA by GO ([1]; SgPC2 cells, GO 24 h, 130-200 U/ml catalase or 2 μM BAPTA-AM): attenuated the suppression by GO

B2: GO: enzyme which catalyzes the oxidation of β-D-glucose to D-glucono-1,5-lactone and hydrogen peroxide (protein, UniProt P13006 17-605, looked up)
Glucose oxidase: LPHYIRSNGIEASLLTDPKDVSGRTVDYIIAGGGLTGLTTAARLTENPNISVLVIESGSYESDRGPIIEDLNAYGDIFGSSVDHAYETVELATNNQTALIRSGNGLGGSTLVNGGTWTRPHKAQVDSWETVFGNEGWNWDNVAAYSLQAERARAPNAKQIAAGHYFNASCHGVNGTVHAGPRDTGDDYSPIVKALMSAVEDRGVPTKKDFGCGDPHGVSMFPNTLHEDQVRSDAAREWLLPNYQRPNLQVLTGQYVGKVLLSQNGTTPRAVGVEFGTHKGNTHNVYAKHEVLLAAGSAVSPTILEYSGIGMKSILEPLGIDTVVDLPVGLNLQDQTTATVRSRITSAGAGQGQAAWFATFNETFGDYSEKAHELLNTKLEQWAEEAVARGGFHNTTALLIQYENYRDWIVNHNVAYSELFLDTAGVASFDVWDLLPFTRGYVHILDKDPYLHHFAYDPQYFLNELDLLGQAAATQLARNISNSGAMQTYFAGETIPGDNLAYDADLSAWTEYIPYHFRPNYHGVGTCSMMPKEMGGVVDNAARVYGVQGLRVIDGSIPPTQMSSHVMTVFYAMALKISDAILEDYASMQ
effect on HCV RNA level / replication [1]: dose-dependently suppressed
intracellular calcium concentration [2]: 66.4 ± 10.7 nM
decrease of intracellular HCV RNA content (JFH1 HCV (genotype 2a)): 30±8%
HCV RNA level by luciferase activity [3]: decreased HCV RNA level
cytotoxicity (ATP concentration, cell survivability) (JFH1-transfected cells): did not cause any loss in cell survivability
NS5A protein level (HCV NS5A): decrease

B3: IFN-γ: interferon-γ, known to inhibit HCV RNA replication in Huh7 cells (protein, UniProt P01579 24-161, looked up)
Interferon gamma: QDPYVKEAENLKKYFNAGHSDVADNGTLFLGILKNWKEESDRKIMQSQIVSFYFKLFKNFKDDQSIQKSVETIKEDMNVKFFNSNKKKRDDFEKLTNYSVTDLNVQRKAIHELIQVMAELSPAAKTGKRKRSQMLFRG
effect on HCV RNA replication after 30 min of treatment ([1]; 30 min treatment): no appreciable effect
HCV RNA level, % of control level ([1]; SgPC2 cells, 24 h, 100 U/ml): about 15%
